Common to all, as to assay: ELISA, variant from culture supernatant on Ni-NTA plate
For orientation: An ELISA detects its analyte on a solid surface through an enzyme-linked reagent.

In assay [1] the target is T1, RB94 hu/bov DS-Cav1 Long FdPL.
T1 construct: also called sc-v20

Assay [2] addresses T2, 391-2-DS-Cav1-sc9deleteFS 98C-361C.
T2 construct: also called DS2-v8

The target in assay [3] is T3, 391-2-DS-Cav1-sc9deleteFS 99C-362C.
T3 construct: also called DS2-v16

For assay [4], the target named is T4, 391-2-DS-Cav1-sc9 100C-361C.
T4 construct: also called DS2-v19

In assay [5] the target is T5, 391-2-DS-Cav1-sc9deleteFS 100C-362C.
T5 construct: also called DS2-v21

In assay [6] the target is T6, RB94 sc9 DS-CAV1 A149C-Y458C L373R Long K226L.
T6 construct: also called DS2-v24

Assay [7] concerns the target T7, 391-2-DS-Cav1_ S398C-S485C.
T7 construct: also called DS2-v25

For assay [8], the target named is 391-2-DS-Cav1_ I28C-G464C.
For assay [9], the target named is T8, 391-2-DS-Cav1_ sc9_I395C-A490C.
T8 construct: also called DS2-v27

In assay [10] the target is T9, 391-2-DS-Cav1-sc9deleteFS 100C-361C.
T9 construct: also called DS2-v29

The target in assay [11] is T10, 391-2-DS-Cav1_ sc9_T449C-V459C.
T10 construct: also called DS2-v31

B1: MPE8 antibody (antibody, V domains shown)
VH: EVQLVESGGGLVKPGGSLRLSCAASGFTFSSYSMNWVRQAPGKGLEWVSSISASSSYSDYADSAKGRFTISRDNAKTSLFLQMNSLRAEDTAIYFCARARATGYSSITPYFDIWGQGTLVTVSS
VL: QSVVTQTPSVSGAPGQRVTISCTGSSSNIGAGYDVHWYQQLPGTAPKLLIYDNNNRPSGVPDRFSASKSGTSASLAITGLQAEDEADYYCQSYDRNLSGVFGTGTKVTVL
notes: also called mAb MPE8
Turning to B1, the ELISA binding value in assay [1] came to 1.38; in assay [2] it was 0.43; in assay [3], 0.2; in assay [4], 0.173; in assay [5], 0.0757; in [6], 0.0872. Also, the ELISA binding value in assay [7] was 0.0824; in assay [8], 0.0815; in assay [9] it was 0.0919; in [10], 0.0592; in assay [11], 0.1.

B2: D25 antibody (antibody, V domains shown)
VH: QVQLVQSGAEVKKPGSSVMVSCQASGGPLRNYIINWLRQAPGQGPEWMGGIIPVLGTVHYAPKFQGRVTITADESTDTAYIHLISLRSEDTAMYYCATETALVVSTTYLPHYFDNWGQGTLVTVSS
VL: DIQMTQSPSSLSAAVGDRVTITCQASQDIVNYLNWYQQKPGKAPKLLIYVASNLETGVPSRFSGSGSGTDFSLTISSLQPEDVATYYCQQYDNLPLTFGGGTKVEIK
notes: also called mAb D25
Regarding B2, the ELISA binding value in [2] is 0.271; in assay [3], 0.197; in assay [4], 0.181; in assay [5], 0.16; in assay [6] it was 0.144; in assay [7], 0.141. Besides, the ELISA binding value was 0.139 in [8], 0.136 in [9], 0.133 in assay [10] and 0.133 in assay [11].

Values taken from patent US20190330277A1 (PIRBRIGHT INSTITUTE, published 2019).
